The target of this test is HLA-B*07 (human). Kind of test: UV peptide exchange ELISA; ++++ = yield >75%. In general terms: An ELISA detects its analyte on a solid surface through an enzyme-linked reagent.

The molecule LPRLPVGSLV returned a peptide exchange yield of more than 75%.

LPIARVLTV returned a peptide exchange yield of more than 75%.

Turning to RAAGRRLQL, the peptide exchange yield was more than 75%.

The molecule GPVPSPLAL yielded a peptide exchange yield of more than 75%.

Molecule RPFSVSSISQL showed a peptide exchange yield of more than 75%.

IPHQRSSL yielded a peptide exchange yield of more than 75%.

RPVTGSVC yielded a peptide exchange yield of more than 75%.

On to RPQPGWRESL, for which the peptide exchange yield was more than 75%.

QPQCSTHIL gave a peptide exchange yield of more than 75%.

Consider RVIQGTTTL, for which the peptide exchange yield is more than 75%.

APLPRPGAV gave a peptide exchange yield of more than 75%.

Molecule SPSGQRDVSL showed a peptide exchange yield of more than 75%.

For the molecule TPFPDIHWF, the peptide exchange yield was more than 75%.

Regarding MPVDSFNSM, the peptide exchange yield was more than 75%.

For VPMPGVQAV, the peptide exchange yield is more than 75%.

On to LPRAGGAF, for which the peptide exchange yield was more than 75%.

SPIPRPLFL came in with a peptide exchange yield of more than 75%.

DVIDDIISL yielded a peptide exchange yield of more than 75%.

LPALKEEAF returned a peptide exchange yield of more than 75%.

As for FPAPPAHWF, the peptide exchange yield was more than 75%.

Consider QPVHSLCSA, for which the peptide exchange yield was more than 75%.

Turning to SPAAPLSPASSL, the peptide exchange yield is more than 75%.

The molecule SPMEAELVRRIL returned a peptide exchange yield of more than 75%.

LPSLSHCSQL yielded a peptide exchange yield of more than 75%.

KPHLDRRGAVI yielded a peptide exchange yield of more than 75%.

In the case of VPYAAQAAL, the peptide exchange yield is more than 75%.

In turn, MPVSAFTVI gave a peptide exchange yield of more than 75%.

In turn, RPDSRLLEL came in with a peptide exchange yield of more than 75%.

The molecule AVRLPTPNL had a peptide exchange yield of more than 75%.

On to QPLDICHSF, for which the peptide exchange yield is more than 75%.

LVQSSRSEV: the peptide exchange yield is more than 75%.

In turn, LPLNSSTSL had a peptide exchange yield of more than 75%.

Consider RPYQDAPVA, for which the peptide exchange yield is more than 75%.

Regarding QPDHAGIFRVF, the peptide exchange yield is more than 75%.

For LPRAFLQSL, the peptide exchange yield was more than 75%.

The molecule SPVPSHWMVAL registered a peptide exchange yield of more than 75%.

Regarding VPSHWMVAL, the peptide exchange yield is more than 75%.

As to RPSKEMQVTI, the peptide exchange yield was more than 75%.

APARPAAAF showed a peptide exchange yield of more than 75%.

As for RPVLTASSF, the peptide exchange yield was more than 75%.

As for RPRYETGVCA, the peptide exchange yield is more than 75%.

Molecule RPSAPRGPP returned a peptide exchange yield of more than 75%.

Turning to QPTWNTQTRL, the peptide exchange yield is more than 75%.

Turning to NPRSPPATM, the peptide exchange yield was more than 75%.

On to SPTRGSEF, for which the peptide exchange yield is more than 75%.

Regarding MPVDSFNSML, the peptide exchange yield was more than 75%.

Molecule KPGFNISIL registered a peptide exchange yield of more than 75%.

On to KPKAVKPKAA, for which the peptide exchange yield was more than 75%.

APEGKRLGF displayed a peptide exchange yield of more than 75%.

APPPPPPPF showed a peptide exchange yield of more than 75%.

SPIIHSILL: the peptide exchange yield was more than 75%.

Take KPYEGRVEI: the peptide exchange yield is more than 75%.

In turn, YPSSPASAV returned a peptide exchange yield of more than 75%.

On to SPSTSRTPLLSSL, for which the peptide exchange yield was more than 75%.

The molecule NVNPARKGL registered a peptide exchange yield of more than 75%.

KPRTPFTTAQLL had a peptide exchange yield of more than 75%.

RPRSLQCVSL showed a peptide exchange yield of more than 75%.

As to LPNTGRIGQLL, the peptide exchange yield was more than 75%.

In turn, QPSLVQAIF displayed a peptide exchange yield of more than 75%.

As to LPRAGGAFLM, the peptide exchange yield was more than 75%.

Molecule SPITLQAL came in with a peptide exchange yield of more than 75%.

For the molecule IPVTSSVTL, the peptide exchange yield is more than 75%.

RPVWDVRSA registered a peptide exchange yield of more than 75%.

The molecule RPTHPLRSF registered a peptide exchange yield of more than 75%.

In the case of RLRDYISSL, the peptide exchange yield is more than 75%.

Take RPILKEQSSSSF: the peptide exchange yield was more than 75%.

In turn, FPCSALLACF had a peptide exchange yield of more than 75%.

Regarding MPYVVLTAL, the peptide exchange yield is more than 75%.

(Values after US20200040057A1 (IMMATICS BIOTECHNOLOGIES, published 2020).)
